In US7138248B2, “Method of inhibiting inward rectifier, G-protein activated, mammalian, potassium channels and uses thereof” (California Institute of Technology, priority 1993, dated 2006):
“Also recorded” adds a separate entry of the source.

Key:
[1] = target: Kir3.1 (Kir3.1/KGA), inward rectifier G-protein activated potassium channel polypeptide cloned from cardiac atrium (rat) (UniProt P63251); experiment: cell-based or functional assay
[2] = target: Kir3.2, isolated by PCR from mouse brain RNA (mouse) (UniProt P48542); experiment: cell-based or functional assay
[3] = system: constitutively active inward rectifier K+ channel(s) (IhK); experiment: Two-electrode voltage clamp of the high-K+-evoked inward current (IhK) in oocytes; format: cell-based, Xenopus laevis
Method: (§1) Preparation of RNA and oocytes. Total RNA was extracted from atria and ventricles of 19–21 day old rats of both sexes using the procedure of Chomczinski and Sacchi (1987) Anal. Biochem. 162:156–159. Poly (A) RNA was separated on an oligo-dT cellulose column (type 3, Collaborative Biochemical Products). Ventricle poly(A) RNA was fractionated by centrifugation (18 h, 30,000 g, 4° C.) on a linear 5%–25% sucrose gradient. Xenopus laevis oocytes were prepared as previously described (Dascal & Lotan (1992) in Methods in Molecular Biology, v. 13: Protocols in Molecular Neurobiology, eds. Longstaff & Revest). and injected with either 50–120 ng/oocyte poly(A) RNA, 120–200 ng/oocyte total RNA, or 35 ng/oocyte fractionated poly(A) RNA. In most cases, 5HT1A-R RNA (5–20 ng/oocyte) was co-injected with atrial or ventricle RNA. Final volume of the injected RNA solution was 50 nl. The oocytes were incubated for 3–7 days in the NDE solution (ND96 (see below) containing 1.8 Mm CaCl2 and supplemented with 2.5 Mm Na-pyruvate and 50 μg/ml gentamicin). Occasionally, either 2.5–5% heat-inactivated horse serum or 0.5 mM theophylline were added to the NDE solution. Incubation of oocytes in pertussis toxin (PTX; List Biochemicals) was done in NDE solution without the addition of pyruvate, serum or theophylline. cDNAs of 5HT1A receptor (Karschin et al. (1991) P.N.A.S. 88:5694–5698) and Gi2a (a gift from M. I. Simon, Caltech) in pBluescript were linearized, and RNA was synthesized in vitro as described (Dascal and Lotan, supra.).
Electrophysiological recordings were performed using the two electrode voltage clamp method with the Dagan 8500 amplifier (Dagan Instruments, Minneapolis) as described (Dascal et al. (1986) Mol. Brain Res. 1:201–209). The oocytes were usually kept in the ND96 solution: 96 mM NaCl/2 mM KC1/1 mM MgCl2/1 mM CaCl2/5 mM Hepes, pH=7.5. Most measurements were done in the high K^+ solution (hK): 96 mM KCl/2 mM NaCl/1 mM MgCl2/1 mM CaCl2/5 mM Hepes, pH=7.5. Solutions containing intermediate concentrations of K^+ were made by substituting K^+ for Na^+. Solution exchange and drug application were done by superfusing the cell placed in a 0.5 ml chamber. GDP-β-S (trilithium salt; Sigma) was injected by pressure (Dascal et al. supra.). Stimulation, data acquisition, and analysis were performed using pCLAMP software (Axon Instruments, Foster City, Calif.).

[4] = target: T1, atrial inward rectifier K+ (KG) channel (Rattus norvegicus, UniProt P48548+P63251); experiment: Two-electrode voltage clamp of the transmitter-evoked inward current (I5HT) in oocytes injected with atrial RNA + 5HT1A-R RNA; format: cell-based
T1 construct: is expressed in oocytes injected with atrial RNA; expressed in transfected cells; host or cells: Xenopus laevis oocytes injected with rat atrial total or poly(A) RNA plus 5HT1A receptor cRNA
T1 sequence (P63251 1-501): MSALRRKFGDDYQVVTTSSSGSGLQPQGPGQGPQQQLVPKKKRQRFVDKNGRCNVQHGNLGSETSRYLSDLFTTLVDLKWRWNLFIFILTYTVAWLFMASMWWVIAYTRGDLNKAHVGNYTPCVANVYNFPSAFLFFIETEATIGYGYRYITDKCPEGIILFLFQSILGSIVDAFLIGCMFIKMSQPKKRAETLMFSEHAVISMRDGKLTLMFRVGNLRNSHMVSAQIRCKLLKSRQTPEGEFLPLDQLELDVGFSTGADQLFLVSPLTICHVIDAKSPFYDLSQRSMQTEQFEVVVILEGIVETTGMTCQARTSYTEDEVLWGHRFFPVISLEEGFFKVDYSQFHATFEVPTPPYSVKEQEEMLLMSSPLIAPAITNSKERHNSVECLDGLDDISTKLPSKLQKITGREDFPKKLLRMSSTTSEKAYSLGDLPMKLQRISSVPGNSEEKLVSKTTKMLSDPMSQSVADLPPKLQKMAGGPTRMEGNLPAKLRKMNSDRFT
T1 sequence (P48548 1-419): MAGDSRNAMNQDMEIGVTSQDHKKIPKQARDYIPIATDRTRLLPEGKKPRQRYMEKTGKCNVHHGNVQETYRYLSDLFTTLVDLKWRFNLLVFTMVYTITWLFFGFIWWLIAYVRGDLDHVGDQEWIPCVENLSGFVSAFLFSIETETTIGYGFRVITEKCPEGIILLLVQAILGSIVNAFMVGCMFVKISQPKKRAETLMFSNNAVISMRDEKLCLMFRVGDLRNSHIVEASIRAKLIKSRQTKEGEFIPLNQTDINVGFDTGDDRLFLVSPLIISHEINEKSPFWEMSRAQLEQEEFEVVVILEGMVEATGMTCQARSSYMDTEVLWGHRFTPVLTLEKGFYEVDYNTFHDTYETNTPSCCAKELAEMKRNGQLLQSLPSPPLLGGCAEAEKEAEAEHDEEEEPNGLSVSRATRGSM
Method: Solutions containing intermediate concentrations of K^+ were made by substituting K^+ for Na^+. Solution exchange and drug application were done by superfusing the cell placed in a 0.5 ml chamber. […] Stimulation, data acquisition, and analysis were performed using pCLAMP software (Axon Instruments, Foster City, Calif.).

Kir3.1+2 = experiment: ACh-induced inward current (m2R activation) in oocytes coinjected with Kir3.1 and Kir3.2 cRNAs; format: cell-based, rat Kir3.1, mouse Kir3.2; settings: 1 μM ACh, 0.5 ng each cRNA per oocyte, mean±SEM, n=5
Source text: (§2) Plasmids and DNAS. To isolate Kir3.2 and Kir3.3 from mouse brain RNA, oligonucleotides were designed that anneal to the first assigned methionine codon and the assigned stop codon of mouse Kir3.2 and Kir3.3 (Lesage et al (1994) FEBS Lett. 353:37–42). Kir3.0-specific sequences were coupled to a 5′-end untranslated sequence from alfalfa mosaic virus (Jobling and Gehrke (1987) Nature 325:622–625) and a T7 RNA polymerase recognition site to confer an optimal translational initiation site and allow RNA synthesis […] (cRNA). At the 3′ end, a poly(A) tail was added to confer RNA stability. Total RNA from adult mouse brain (purchased from Clontech) was used as template for cDNA synthesis (Sambrook et al., supra.). PCR was conducted in a thermal cycler (Perkin-Elmer) by using Vent Polymerase (New England Biolabs), which minimizes misincorporations during the amplification step. Kir3.2 and Kir3.3 PCR-derived sequences were then inserted into the pNoTA vector (5 Prime→3 Primer, Inc.) for subsequent sequence analysis. […]
(§3) Electrophysiology. Whole-cell currents from oocytes were measured by using an Axoclamp 2A or Geneclamp 500 amplifier (Axon Instruments, Foster City, Calif.) in the two-electrode, voltage-clamp configuration. […]

Kir3.2 = experiment: ACh-induced inward current (m2R activation) in oocytes injected with Kir3.2 cRNA; format: cell-based, mouse; settings: 1 μM ACh, 1 ng cRNA, n=7
Source text: as §2, §3

Kir3.1 = experiment: ACh-induced inward current (m2R activation) in oocytes injected with Kir3.1 cRNA; format: cell-based, rat; settings: 1 μM ACh, 1 ng cRNA, n=5
Source text: as §2, §3

Xenopus laevis oocytes = experiment: Membrane (resting) current of oocytes in normal ND96 solution, two-electrode voltage clamp; format: cell-based
Method: as §1, with “Incubation of oocytes in pertussis toxin (PTX; List Biochemicals) was done in NDE solution without the addition of pyruvate, serum or theophylline. cDNAs of 5HT1A receptor (Karschin et al. (1991) P.N.A.S. 88:5694–5698) and Gi2a (a gift from M. I. Simon, Caltech) in pBluescript were linearized, and RNA was synthesized in vitro as described (Dascal and Lotan, supra.).” left out

[5] = target: serotonin 5HT1A receptor (5HT1A-R); experiment: cell-based or functional assay
[6] = 400–800 pmole/oocyte injected, 4 cells
[7] = RNA-injected oocytes without Gi2α RNA, 500 ng/ml, 20–26 h

Kir3.2, isolated by PCR from mouse brain RNA (mouse), sequence (P48542 whole entry): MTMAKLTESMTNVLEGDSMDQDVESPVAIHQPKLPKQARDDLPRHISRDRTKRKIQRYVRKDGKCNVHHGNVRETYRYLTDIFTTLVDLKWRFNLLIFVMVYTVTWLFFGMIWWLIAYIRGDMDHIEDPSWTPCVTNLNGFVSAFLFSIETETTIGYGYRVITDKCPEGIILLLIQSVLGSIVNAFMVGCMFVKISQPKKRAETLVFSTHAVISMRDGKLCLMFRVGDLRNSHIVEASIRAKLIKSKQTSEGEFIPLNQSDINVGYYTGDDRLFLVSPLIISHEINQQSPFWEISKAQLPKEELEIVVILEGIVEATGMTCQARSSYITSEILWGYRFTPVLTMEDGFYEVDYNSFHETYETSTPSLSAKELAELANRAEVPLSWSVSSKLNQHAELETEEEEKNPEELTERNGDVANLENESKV
Method for native oocytes: Electrophysiological recordings were performed using the two electrode voltage clamp method with the Dagan 8500 amplifier (Dagan Instruments, Minneapolis) as described (Dascal et al. (1986) Mol. Brain Res. 1:201–209). […]

Kir3.3, isolated by PCR from mouse brain RNA (from UniProt P48543 1-393)
fold increase of IK of Kir3.1+3 over Kir3.1 alone [1]: 7 fold
inward K+ current (IK), Kir3.1 and Kir3.3 coexpressed (Kir3.1+3) [1]: -3.4 µA
Gβγ-induced, inwardly rectifying currents in oocytes coinjected with Kir3.2 and Kir3.3 cRNAs (0.5 ng each per oocyte) [2]: -129 nA

Nc1nc2c(ncn2[C@@H]2O[C@H](COP(=O)(O)OP(O)(O)=S)[C@@H](O)[C@H]2O)c(=O)[nH]1 [GDP-β-S]
IhK after injection, % of control [3, 6]: 115±8 % of control
I5HT after injection, % of control [4, 6]: 4±1 % of control

CC(=O)OCC[N+](C)(C)C [ACh, acetylcholine]
inward currents induced by ACh (IK,ACh) (Kir3.1+2): −6.4±0.8 μA
inward currents induced by ACh (IK,ACh) (Kir3.2): −698±98 nA
inward currents induced by ACh (IK,ACh) (Kir3.1): −365±45 nA

[Ba+2] [Ba^2+]
change in resting current or conductance in normal ND96 (Xenopus laevis oocytes; 5 μM-3 mM, native or RNA-injected oocytes, holding potential -80 mV): did not cause any significant changes
block of IhK ([3]; 300 μM, hK solution): about 20%
IC50 ([3]; hK solution, -80 mV, FIG. 3D, read-out: IC50 for IhK block): > 3000 µM
block of I5HT ([4]; 300 μM, hK solution, FIG. 3B): almost completely blocks; also recorded: almost completely abolished
IC50 ([4]; hK solution, -80 mV, FIG. 3D, read-out: IC50 (half-inhibition concentration) for block of I5HT): ~15 µM

NCCc1c[nH]c2ccc(O)cc12 [5HT, serotonin]
effect of 5HT on current (native oocytes): no effect
change in membrane current in ND96 bath solution (Xenopus laevis oocytes; RNA-injected oocytes, 4 to 5 days after injection, 10 μM ACh or 1–2 μM 5HT): did not cause any significant change
EC50 [4]: ~0.015 µM
inward current induced by the transmitter in hK solution ([4]; RNA-injected oocytes of one frog, n=6): 1102±84 nA
saturation of the I5HT dose-response curve ([4]; hK solution, FIG. 1C): about 100 nM
I5HT, inward current evoked by 5HT ([4]; oocytes injected with Atrial + 5HT1A-R RNA, -80 mV, hK solution, 5HT 100 nM to 2 μM, mean±SEM (n)): 290 ± 43 (55) nA

pertussis toxin [PTX]
effect of treatment on IhK [3, 7]: not affected
effect on IhK ([3]; oocytes injected with atrial RNA plus cRNAs encoding 5HT1A-R and Gi2α): unaffected
effect of treatment on I5HT [4, 7]: not affected
inhibition of I5HT ([4]; oocytes injected with atrial RNA plus cRNAs encoding 5HT1A-R and Gi2α, P<0.01): about 50%

G protein subunits Gβ1 and Gγ2 (Gβ1γ2)
inward K+ current (IK) in high-K+ solution, Kir3.1 alone with Gβ1γ2 [1]: -104 nA
inward K+ current (IK), Kir3.1 alone (control of the Kir3.1+3 experiment) [1]: -481 nA
Gβγ-induced, inwardly rectifying currents in oocytes injected with Kir3.2 cRNA alone (1 ng per oocyte) [2]: -5.1 µA
inward K+ current (IK) in high-K+ solution, Kir3.2 alone with Gβ1γ2 [2]: -305 nA

Gi2α, PTX-sensitive α subunit of a G-protein
PTX inhibition of I5HT in oocytes injected with atrial RNA plus cRNAs encoding 5HT1A-R and Gi2α [5]: 50%

Kir3.2, isolated by PCR from mouse brain RNA (from UniProt P48542 1-425)
fold increase of IK of Kir3.1+2 over Kir3.1 alone (with Gβ1γ2) [1]: 40 fold
fold increase of IK of Kir3.1+2 over Kir3.2 alone (with Gβ1γ2) [1]: 14 fold
fold increase of the ACh-induced current of Kir3.1+2 over Kir3.1 alone [1]: 17 fold
fold increase of the ACh-induced current of Kir3.1+2 over Kir3.2 alone [1]: 9 fold
fold increase of the major open-time component of Kir3.1+2 against Kir3.2 alone [1]: 7 fold
inward K+ current (IK) in high-K+ solution, Kir3.1+2 coexpressed with Gβ1γ2 [1]: -4.3 µA
inward currents induced by ACh (IK,ACh), Kir3.1+2 coexpressed with m2R, 1 µM ACh [1]: -6.4 µA
major component of single-channel open-time duration, Kir3.1+2 [1]: 3.5 ms
time constant of the slower activation component at -80 mV, Kir3.1+2 coexpressed [1]: 213 ms
